This note sets out measurements from the DeepSol protein solubility set.

This series is described as follows: soluble on expression in E. coli; label from the status in PepcDB or PDB records.
Regarding “MSLSDNRSHIEEKYQWDLTSIFPNDQTWEKEEKSLAKDLEIAVKRAGHLLDSSQSLLEITELYLALSRRLEKLYVYASMKNDQDTTVSYYQELQAKATALIAKFNQTFAFYEPEFMLLSTEKYQDFLADCPDLLPYQHFFEKLFKQKKHVLSQKEEALLAEASEIFGAAGETFEILDNADIIFPWVKDETGEEVELSHGNFISLMESKNRKVRQEAYKAMYSIYEQYQHTYAKTLQTNVKVNNFQAKIRNYKSAREAALAANFIPETVYDTLVEAVHNHLPLLQRYVKLRQNVLGLDDLKMYDIYVPLSEMDMTFTYEAALDKAEEVLAIFGRDYAERVHRAFRERWIDVRVNKGKRSGAYSGGSYDTNAFILLNWQDTLDNLFTLVHETGHSLHSTFTRENQPYVYGDYSIFLAEIASTTNENILTETLLKEATDEKQRFAILNHYLDGFKGTVFRQTQFAEFEDLIYKADQAGDVLTSDYLNNLYADLNEKYYGLSKENNPEIQYEWARIPHFYYNFYVYQYATGFAAASFLAHKIVHGNQEDKDKYLNYLKAGNSDYPLNVIAKAGLDMTESTYLDQAFKVFEERLIELEELVEKGIDEGHHHHHH”, the “soluble on expression in E. coli” value is given as “soluble”. As for “RDISVMVLLDLSESTNNQVNGQEFTVLDLTRQATVLLADAINRIGDPFAIHGFCSDGRHDVEYYRFKDFDQPYNEVPKMRLAGMTGQLSTRMGAAIRHASHFLKLQRAAKKLLLVITDGEPADVDVRDPQYLRFDTKKAVEEAGRSGILTYCMSLDPRADQYVSRIFGMRNYMVVDHVERLPEKLPMLYAGLTR”, the entry is “not soluble”. As for “MKLYLIGLGPGDPELLTLKALRLIQRLPVLFYPKEEGREPVALGIARPFLPEGKPLLPLPLFTGGDPKEAERARREAARRVREALSRYGEGGYLVLGDSLLYASPLNLLPHLEGVAVEAVPGISAHQLAAASLLKPIALGEEGFAAVTGLGPVDPEGLDRFQSVFVYKAKDLEALERAFPDREGWAFLRLGMPGERVLPLGAAKGVARDYWTLVGLWRKGGEG”, the entry is “soluble”. Next, “MAKEKIIVENEQSVEEKLAALSKLQNTLSEIDKIKTLRGELPLEVQDLEDEIAGMQTRLENFTAGSKQLNQAVTTEKEKISTAKTLLEKYKKQLDEVRNNREFDNLSKEIEFQELEIQLSEKKIKEYNVEIQQRKTDIATLKEVLEEHSEVLAEKRGELDTIIAETKQEEEKLREKAKKLEAKIEPRLLTAFKRIRKAAHNGLAVVPVERDACGGCFNKIPPQKQLDVKLRKKIIVCEYCGRIMVDPEMGA”: “not soluble”.

Turning to “MLFKRPDTETLYFALVNKDPAYEGVAYVCVTSTKIFCRFTCTARKPKIENCRFRETITECLEAGFRPCKRCKPMLSYGTPDGTVTALLTALENEPARRWREEDVVALGHDPSTVRRSFKRRFGMSFLEIARLRRVGDAAESLASGEAVIGAQIDAGYESGSGFRSAINQLFGTSPAAMKGRGFLKGDWIDTPIGPMLAVADDHALHLLEFADRPALPAELKRLKARTGADMVLGRTAVTGQIAAELAAYFAGRSGSFETRLAGHGTPFERDVWRNLREIPAGEIVSYSSLATAMERPTAVRAVARANGANQLAIVVPCHRVLGADGSLTGYGGGLWRKKWLIEHERRMARGLEHHHHHH”, the “soluble on expression in E. coli” value was “soluble”. “MALVLTFLGKGGVGRTTVAIAAAKKLAQAGQRVLVLGQDPSLAWQWGITLSETAQGVEANVDGLLLSSTHLLERGWEKLKEVEAQYLRSPALKNIYGEELGVLPGMDEVLVLNALREYELSGRYDVLIYDGPGNLSTLRMLGIPEIASWYWRRFQKVLADSEVVQTLSPFVQPVASAVLSVNWSPDQMLNHPDGPQNLLQQGKAAIADPNRFAAYLVTSTDSLAQKAAQSYWGGAQQVGVTVKGVIQTPLGNGSLDANLFDPLLIAALPSYNQGNWQPLMDALPNPQAMGSAPRPLEIDVNARQVKVFLPGFDKRQVKLTQSGPELTIEAGDQRRNIDLPGNLRGKGVTGAKFQGGYLIVSFLEHHHHHH”: the “soluble on expression in E. coli” value is “not soluble”. Next, “MTSALPRPAPSPYARRKTALVIGAGFGGLALGIRLQSLGFDTTILERLDGPGGRAYQKRTPDGYVFDMGPTVLTVPHFIEELFALERDRAGLDAPDYPPEVLSGERVKEGVSGGPHTSRYVTLVPILPFYRIVFHDGTYFDYDGDPESTRRQIAELAPGDLAGYERFHADAEAIFRRGFLELGYTHFGDVPTMLRVVPDLLKLDAVRTLFSFTSKYFQSDKLRQVFSFETLLVGGNPLSVPAIYAMIHFVEKTWGIHYAMGGTGALVRGLVQKFEELGGAIRYGAGVDEVLVDGNLPGKRTARGVRLESGEELRADLVASNGDWANTYLKRVRPSARLVNSDLRVKAASESMSLLVVYFGFRGGDDLPLKHHNILLGPRYEALLSEIFGTKRLGEDFSQYLHVPTLTDPALAPAGHHAAYTLVPVPHNGSGIDWDVEGPKLAEAALADIERRGLIPGLRERLTHFEFITPDYFAGTLDSYLGNAFGPEPRLVQSAFFRPHNRSEDLHNFYLVGAGAQPGAGTPSVMMSAKMTARLIAEDFGIHADIRRLEHHHHHH”: “not soluble”; “MVKETKLYDLLGVSPSANEQELKKGYRKAALKYHPDKPTGDTEKFKEISEAFEILNDPQKREIYDQYGLEAARSGGPSFGPGGPGGAGGAGGFPGGAGGFSGGHAFSNEDAFNIFSQFFGGSSPFGGADDSGFSFSSYPSGGGAGMGGMPGGMGGMHGGMGGMPGGFRSASSSPTYPEEETVQVNLPVSLEDLFVGKKKSFKIGRKGPHGASEKTQIDIQLKPGWKAGTKITYKNQGDYNPQTGRRKTLQFVIQEKSHPNFKRDGDDLIYTLPLSFKESLLGFSKTIQTIDGRTLPLSRVQPVQPSQTSTYPGQGMPTPKNPSQRGNLIVKYKVDYPISLNDAQKRAIDENF”: “not soluble”. Next, “MGSDKIHHHHHHMKNNETKVPTSRLSRLSKMGGLASRLAGNVLLEGAKQLSQGKSPSMQQLMMTPKNIGHVADKLSQLRGAAMKVGQMLSMDAGDLVPPELAEILAKLRSDAKAMPHKQLTQLLVQHWGHDWLAPFAQFELRPFAAASIGQVHLAYLDTGEKLAIKIQYPGIRDSIDSDIDNVASLLKVSRLIPANVKLDTLLAEAKAQLHNEADYHFEAQQIALYQQQLGDSPHFIVPKVYPKLSNNSILCMQFVEGVAIESVEHSPQDVRDKVASALMELCFKELFCFQLVQSDPNFANFQYQADSQKIVLLDFGATRTISDTLSQGYMQLMQGAIADDKQQMIQAAQQIGFFQDAIDPQQKQLIIDIFYQACEPLRTQGTYDFGASNLAKRITQAGKAMSTQQNEWHTPPTDAIFIHRKLAGMYLLAAKLNANINVHALFNQVVNSKNE”: “not soluble”; “MGSDKIHHHHHHMHLGVVVPRVDDHSTIELAVEAEGHGYDSVWLNELWGASSVVELTDIATRTDDIEIGSAILNVFSRSPAVLAMTATTLDRVSDGRAVLGLGTSTARSIENMHSMEFERPVRRAHETIDIIKQLMTGDERVTYDGEAVSVRGVPPLDRDVPVYHAALGPANRRVVARLADGWLPHMIAFSELESAFDYIAETARDADRDPDDITVAPYVPAVVHEDSERATEELRQHIAYYVGSGEGYRRAVAETYPDRAERIADAWQAGDRGEATELVTDEMTADLGIAGTPEQAREKRDKIADRAVIDRLLLTVPQQVDGELARKTIRALGPN”: “not soluble”. Next, “MSEIAMHVTAKPSSFQCNLKCDYCFYLEKESQFTHEKWMDDSTLKEFIKQYIAASGNQVYFTWQGGEPTLAGLDFFRKVIHYQQRYAGQKRIFNALQTNGILLNNEWCAFLKEHEFLVGISIDGPQELHDRYRRSNSGNGTFAKVIAAIERLKSYQVEFNTLTVINNVNVHYPLEVYHFLKSIGSKHMQFIELLETGTPNIDFSGHSENTFRIIDFSVPPTAYGKFMSTIFMQWVKNDVGEIFIRQFESFVSRFLGNGHTSCIFQESCKDNLVVESNGDIYECDHFVYPQYKLGNINKSELKTMNSVQLTAQKKRISAKCQQCAYKPICNGGCPKHRITKVNDETVSYFCEGYKILFSTMVPYMNAMVELAKNRVPLYHIMDVAKQMENN”: “not soluble”; “MSLAANMYRVGDYVYFENSSSNPYLVRRIEELNKTANGNVEAKVVCLFRRRDISSSLNSLADSNAREFEEESKQPGVSEQQRHQLKHRELFLSRQFESLPATHIRGKCSVTLLNETDILSQYLEKEDCFFYSLVFDPVQKTLLADQGEIRVGCKYQAEIPDRLVEGESDNRNQQKMEMKVWDPDNPLTDRQIDQFLVVARAVGTFARALDCSSSIRQPSLHMSAAAASRDITLFHAMDTLQRNGYDLAKAMSTEGHHHHHH”: “not soluble”.
